Measured values published in US20250282876A1, “STABLE Fc FRAGMENTS, CONJUGATES, COMPOSITIONS, AND METHODS OF USE” (PURDUE RESEARCH FOUNDATION, priority 2022, published 2025).

Key:
[1] = tested on: antibody-dependent cell-mediated cytotoxicity (ADCC); assay: ADCC activity of mFc mutant (Example 1 statement); format: cell-based; conditions: compared to WT
[2] = molecular target: FcγRIIIa (Homo sapiens, UniProt P08637); assay: Binding affinity of mFc mutant compared with wild-type (Example 1 statement); conditions: comparative with wild-type (WT)
[3] = molecular target: T1, FcγRIIb (Homo sapiens, UniProt P31994); assay: Binding of mFc mutant compared with wild-type (Example 1 statement); conditions: as compared to WT
T1 sequence (P31994 43-310): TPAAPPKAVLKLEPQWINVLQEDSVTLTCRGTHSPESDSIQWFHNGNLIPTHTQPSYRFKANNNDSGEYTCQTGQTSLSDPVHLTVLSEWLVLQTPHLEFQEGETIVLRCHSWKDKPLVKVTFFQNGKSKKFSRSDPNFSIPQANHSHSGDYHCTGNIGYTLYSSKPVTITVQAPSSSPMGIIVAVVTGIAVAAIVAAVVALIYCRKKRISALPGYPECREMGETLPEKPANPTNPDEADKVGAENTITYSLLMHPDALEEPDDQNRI

[4] = tested on: antibody-dependent cellular phagocytosis (ADCP); assay: ADCP activity of mFc mutant (Example 1 statement); format: cell-based; conditions: compared to WT
[5] = molecular target: T2, CD32b (Homo sapiens, UniProt P31994); assay: Bio Layer Interferometry (Octet) binding of monomeric Fc variants to FcγR; conditions: huFcγR variant CD32b; 1:1 Langmuir fit; * denotes weak binding/inaccurate KD
T2 construct: purchased Beijing Sino Biological Inc
T2 sequence (P31994 43-310): T1 sequence (P31994 43-310)

[6] = molecular target: T3, CD16a (176F) (Homo sapiens, UniProt P08637); assay: as above; conditions: huFcγR variant CD16a(176F); 1:1 Langmuir fit; * denotes weak binding/inaccurate KD
T3 construct: purchased Beijing Sino Biological Inc
T3 sequence (P08637 17-254): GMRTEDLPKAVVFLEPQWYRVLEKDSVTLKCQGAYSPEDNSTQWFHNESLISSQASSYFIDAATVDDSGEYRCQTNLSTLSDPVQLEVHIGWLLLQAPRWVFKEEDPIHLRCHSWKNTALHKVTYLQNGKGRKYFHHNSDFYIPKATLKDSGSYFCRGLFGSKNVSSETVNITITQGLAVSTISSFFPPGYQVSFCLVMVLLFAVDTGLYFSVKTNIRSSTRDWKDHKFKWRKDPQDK

FcγRIIIa, sequence (P08637 17-254): as above

Substance | ADCC activity [1] | binding affinity to FcγRIIIa [2] | binding to inhibitory FcγRIIb [3] | ADCP activity [4] | Kd [5] | Kd [6]
Mono-Fc DLE: modified Fc region of human IgG1 with DLE mutation (Ser239Asp/Ala330Leu/Ile332Glu) | enhanced | increased FcγRIIIa affinity | low binding | enhanced | 1.34 nM | –
Mono-Fc WT: wild-type Fc region of human IgG1 (aa 216-447), expressed as about 26 kDa monomeric form [reference compound] | – | – | – | – | 3760 nM | < 0.001 nM
